Consider 80 sequences from the supplement of paper PMC10724198.

± gives the standard deviation of the averaged measurements.
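Note: PSI is a weighted mean of sequencing reads over stability bins, variants kept only with over 10 reads, mCherry proximal and sfGFP distal, peptide attached via GGGS linker.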

The data set has as its system Saccharomyces cerevisiae. The data set is described as follows: protein stability index of tFT-peptide fusion (C-terminal peptide) (PSI (0-1 scale)); higher = more stable (slower turnover). Particulars: genetic background: wild type; temperature: 30 C.
The sequence SVGIWSYGLCWF registered a protein stability index of 0.753 ± 0.055.
SVGQWSGGRACW displayed a protein stability index of 0.751 ± 0.043.
In turn, SVGSSGFMLFCL gave a protein stability index of 0.741 ± 0.18.
In the case of SVHTQLSPMDTT, the protein stability index worked out at 0.64 ± 0.018.
Regarding SVILRMIGQKIK, the protein stability index was found to be 0.596 ± 0.038.
For SVIRTRYSSARM, the protein stability index is 0.662 ± 0.057.
Take SVKESKIQQNRE: the protein stability index came out at 0.705 ± 0.11.
Sequence SVLRRKDKGKRG came in with a protein stability index of 0.654 ± 0.014.
SVLVCSAIVIRK showed a protein stability index of 0.5998 ± 0.00079.
Turning to SVLVHSFRSVNV, the protein stability index is 0.66 ± 0.002.
Regarding SVPPPPRTPSSI, the protein stability index turned out to be 0.666 ± 0.03.
SVRSVFVFGVIK yielded a protein stability index of 0.664 ± 0.017.
As to SVRSYYVRSMLE, the protein stability index came out at 0.692 ± 0.076.
In turn, SVRVRKGRYDNK had a protein stability index of 0.707 ± 0.018.
Sequence SVSGRYYAVRVR yielded a protein stability index of 0.566 ± 0.0072.
As to SVSVLSPPPLPP, the protein stability index came out at 0.636 ± 0.015.
In turn, SVVFSQCLVNLG had a protein stability index of 0.659 ± 0.062.
On to SVVLGSVHVLTR, for which the protein stability index worked out at 0.661 ± 0.015.
SVWGGVPLVRET: the protein stability index turned out to be 0.6854 ± 0.0015.
For SWAFAGGGAATG, the protein stability index was 0.694 ± 0.011.
SWFSPMCTTSPR displayed a protein stability index of 0.677 ± 0.04.
On to SWFVGFEGAVGG, for which the protein stability index came to 0.7563 ± 0.0046.
In the case of SWHTSRPPPPPF, the protein stability index is 0.656 ± 0.013.
On to SWPDVCLTSPLS, for which the protein stability index came out at 0.731 ± 0.042.
With SWQSRISLRIST, the protein stability index came to 0.648 ± 0.041.
For SWTWLFGFRRGL the value was 0.746 ± 0.11.
On to SWVIRSDLHYAL, for which the protein stability index came out at 0.731 ± 0.032.
On to SYLDWFLVLDMF, for which the protein stability index came out at 0.6706 ± 0.0047.
As for SYLFRLLFATLP, the protein stability index turned out to be 0.601 ± 0.033.
Regarding SYLTQNGYAFRQ, the protein stability index was 0.644 ± 0.082.
On to SYNYMSIVMYRL, for which the protein stability index was determined as 0.587 ± 0.0071.
The sequence SYRLILGSSPHP gave a protein stability index of 0.619 ± 0.089.
In turn, SYSPRRRLNTPR registered a protein stability index of 0.699 ± 0.058.
TACIVGLRLMRL gave a protein stability index of 0.787 ± 0.063.
Turning to TAFGLMRQPCMG, the protein stability index was found to be 0.657 ± 0.052.
For the sequence TAGIIINCPIYL, the protein stability index was found to be 0.596 ± 0.038.
In the case of TAHPCVYRRGAV, the protein stability index worked out at 0.675 ± 0.021.
For TALGLILSSFVY the value was 0.595 ± 0.067; for TALGVCPRVMQN, 0.718 ± 0.039; for TALKNLPSVSSV, 0.712 ± 0.1.
For TALQNAAPRTAS the value was 0.73 ± 0.11; for TARGIRGICKSI, 0.711 ± 0.021.
For TASVDQAVRWRG the value was 0.708 ± 0.054; for TAYRFYSYESSF, 0.678 ± 0.082.
In turn, TCDGSCRRGDLR returned a protein stability index of 0.663 ± 0.066.
TCLIFTCVLKFR: the protein stability index was found to be 0.485 ± 0.098.
Sequence TCPDSVMDRLDS gave a protein stability index of 0.696 ± 0.12.
The sequence TCRGGNPFRACC showed a protein stability index of 0.707 ± 0.054.
The sequence TCVLYSSGFIYF displayed a protein stability index of 0.665 ± 0.065.
For TDGLGGGVVGRE the value was 0.664 ± 0.011; for TDIRMRRLNRDT, 0.684 ± 0.029.
In the case of TDISPRFVSVYL, the protein stability index amounted to 0.656 ± 0.017.
The sequence TEDGSYGESEQA had a protein stability index of 0.642 ± 0.023.
Sequence TEREAKKKKSKI showed a protein stability index of 0.704 ± 0.026.
For TFAALRVFSFLS, the protein stability index amounted to 0.666 ± 0.052.
In turn, TFALAPLPPLPS registered a protein stability index of 0.68 ± 0.032.
For TFCPPSRYRPRA, the protein stability index turned out to be 0.709 ± 0.008.
In turn, TFFPPLPPPSPS showed a protein stability index of 0.702 ± 0.012.
Turning to TFINVHRFCSAI, the protein stability index is 0.647 ± 0.024.
TFISNYSCILSL came in with a protein stability index of 0.644 ± 0.013.
TFPSADLYYSLL: the protein stability index was found to be 0.74 ± 0.049.
Regarding TFSIACIPSSHK, the protein stability index amounted to 0.652 ± 0.025.
Regarding TFTSTTLARPFS, the protein stability index was 0.831 ± 0.036.
TGAGGPGPRNRK had a protein stability index of 0.774 ± 0.064.
The sequence TGKHDIAQEQTK yielded a protein stability index of 0.679 ± 0.028.
TGLLGLVGSQVP came in with a protein stability index of 0.67 ± 0.016.
Sequence TGMYHSQPYPAA had a protein stability index of 0.677 ± 0.0071.
Sequence TGRERLAEGDWR yielded a protein stability index of 0.692 ± 0.019.
In turn, TGRWRWMRDLLS registered a protein stability index of 0.63 ± 0.032.
On to TGVFFPPQLPLP, for which the protein stability index was found to be 0.69 ± 0.023.
For TGWASWVSVCLI the value was 0.5587 ± 0.00094.
TGWLRLLHAASG gave a protein stability index of 0.656 ± 0.045.
TGWWSPCRLDSS: the protein stability index is 0.722 ± 0.024.
In the case of THLPLPPPPPLL, the protein stability index is 0.655 ± 0.022.
THPFLRTHPPVE displayed a protein stability index of 0.714 ± 0.097.
THPPPGPHPSAA showed a protein stability index of 0.717 ± 0.017.
For THSGRVRIVSFL the value was 0.654 ± 0.12.
THTDQKTNHRRQ: the protein stability index was 0.69 ± 0.05.
As to TIAETIGCEKII, the protein stability index came out at 0.785 ± 0.099.
For TIETDIYAIARV the value was 0.659 ± 0.041.
